Measured values: patent US20190276499A1, “Protein VII Fragments and Methods of Use Thereof for the Treatment of Inflammatory Disorders” (priority 2016, published 2019)

Assays:
Assay type in all cases: cell-based
[1] = target: T1, HMGB1 (Homo sapiens, UniProt P09429); test: Fluorescence recovery after photobleaching (FRAP) of HMGB1-mGFP
T1 sequence (P09429 1-215): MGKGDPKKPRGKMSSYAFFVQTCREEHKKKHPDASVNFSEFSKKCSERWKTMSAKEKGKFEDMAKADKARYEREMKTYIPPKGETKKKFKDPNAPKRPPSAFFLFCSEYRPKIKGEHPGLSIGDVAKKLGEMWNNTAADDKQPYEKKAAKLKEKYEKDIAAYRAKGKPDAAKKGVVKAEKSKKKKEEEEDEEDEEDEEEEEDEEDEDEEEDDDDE
Method: Full-length HMGB1 was cloned from pcDNA3.1 Flag-hHMGB1 (Addgene 31609) into pEGFP-N1 containing a L221K mutation to prevent dimerization of GFP molecules (Zacharias et al. (2002) Science 296:913-916). A549 cells were induced to express protein VII for four days with doxycycline in glass-bottom dishes. Cells were then transfected with the construct that constitutively expresses HMGB1 with a monomeric GFP C-terminal tag. FRAP was carried out using standard methods on a Zeiss LSM confocal microscope. Diffusion coefficients were calculated using the “simFRAP” algorithm (imagej.nih.gov/ij/plugins/simfrap/index.html), a simulation based approach to FRAP analysis (Blumenthal et al. (2015) Sci. Rep., 5:11655).

[2] = system: cellular chromatin; test: Chromatin appearance in inducible cell lines (immunofluorescence, DAPI); conditions: inducible expression
Text: Primary small airway epithelial cells (SAECs), U2OS, HeLa, 293, THP-1 and A549 cells were obtained from the American Tissue Culture Collection (ATCC) and grown according to the provider's instructions. Acceptor cells for generation of inducible cell lines were used as reported (Khandelia et al. (2011) Proc. Natl. Acad. Sci., 108:12799-12804). Protein VII, preVII and V were cloned from genomic DNA isolated from HeLa cells infected with adenovirus type 5 and inserted into the inducible plasmid cassette with a C-terminal HA tag using restriction enzymes BsrGI and AgeI. Positive clones were selected in DH5a cells, sequenced, and transfected into A549, U2OS or HeLa acceptor cells along with plasmid expressing the Cre recombinase. Recombined clones were selected by puromycin resistance (1 μg/mL) and induced with doxycycline (0.2 μg/mL) to express the desired protein. Protein expression was verified by immunofluorescence and western blot. All figures shown are after 4 days of induction unless otherwise stated. Protein VII and preVII were also verified by HPLC purification and mass spectrometry analysis. Point mutations were generated by gene synthesis from Genewiz.
Cells were grown on glass coverslips in 24-well plates and either infected or induced with doxycycline (0.2 μg/mL). […]

[3] = target: T1, HMGB1; test: Salt fractionation of nuclei, western blot for HMGB1; parameters: endogenous in cells; host or cells: A549 (also 293 / 293-Cre in the salt fractionation); conditions: for Chromatin association of HMGB1 (retention in high salt fractions): A549 cells, doxycycline-induced expression
Method: Salt fractionation of nuclei was adapted from established protocols (Zaret, K. (2005) Micrococcal nuclease analysis of chromatin structure. Curr. Protoc. Mol., Biol. Chapter 21, Unit 21.1; Teves et al. (2012) Methods Mol. Biol., 833:421-432). Briefly, 2-4×10^7 cells were collected and resuspended in 2 mL of ice-cold buffer I (0.32 M sucrose, 60 mM KCl, 15 mM NaCl, 5 mM MgCl2, 0.1 mM EGTA, 15 mM Tris, pH 7.5, 0.5 mM DTT, 0.1 mM PMSF and protease inhibitor cocktail from Roche). To dissolve the plasma membrane, 2 mL ice-cold buffer I supplemented with 0.1% IGEPAL were added and samples were incubated on ice for 10 minutes. The 4 mL of nuclei was layered on 8 mL of ice-cold buffer II (1.2 M sucrose, 60 mM KCl, 15 mM NaCl, 5 mM MgCl2, 0.1 mM EGTA, 15 mM Tris, pH 7.5, 0.5 mM DTT, 0.1 mM PMSF and protease inhibitor cocktail from Roche) and centrifuged for 20 minutes at 10,000×g and 4° C. The pelleted nuclei were resuspended in 400 μL buffer III (10 mM Tris pH 7.4, 2 mM MgCl2, 0.1 mM PMSF) supplemented with 5 mM CaCl2 and the DNA was digested to mononucleosomes by addition of 1 unit of MNase (Sigma-Aldrich, N3755). The reaction was incubated at 37° C. for 30 minutes and then stopped by addition of 25 μL of 0.1M EGTA. The samples were centrifuged for 10 minutes, 350×g, at 4° C., and supernatants were set aside for western blot analysis. The pellet was resuspended in 400 μL of buffer IV (70 mM NaCl, 10 mM Tris pH 7.4, 2 mM MgCl2, 2 mM EGTA, 0.1% Triton X-100, 0.1 mM PMSF) with 80 mM salt and rotated for 30 minutes at 4° C. The sample was centrifuged for 10 minutes at 350×g, 4° C., and the supernatant collected for western blot analysis. This step was repeated for salt concentrations in buffer IV of 150 mM, 300 mM and 600 mM. The final pellet was resuspended in 400 μL ddH2O and all samples were analyzed together by western blot. An aliquot of each supernatant was set aside for DNA purification using a PCR purification kit (Qiagen) and analyzed by agarose gel electrophoresis. […]

B1: protein VII: mature protein VII of human adenovirus type 5 (SEQ ID NO:1), expressed in cells, mostly with C-terminal HA tag (protein)
chain: AKKRSDQHPVRVRGHYRAPWGAHKRGRTGRTTVDDAIDAVVEEARNYTPTPPPVSTVDAAIQTVVRGARRYAKMKRRRRRVARRHRRRPGTAAQRAAAALLNRARRTGRRAAMRAARRLAAGIVTVPPRSRRRAAAAAAAAISAMTQGRRGNVYWVRDSVSGLRVPVRTRPPRN
modifications: C-terminal HA tag; Human adenovirus 5
Question: What does the source list for B1?
Answer: HMGB1 mobility by FRAP ([1]; A549 cells expressing protein VII, HMGB1-mGFP): decreased HMGB1 diffusion; Fluorescence recovery after photo-bleaching of full-length HMGB1 and HMGB1 A box ([1]; upon expression of protein VII): dramatically delayed; Effect on chromatin appearance [2]: altered nuclear DNA into a punctate appearance; Retention of HMGB1 in the 600 mM high-salt fraction ([3]; A549 cells transfected 24 hours with GFP-tagged constructs): retention of HMGB1; Chromatin association of HMGB1 (retention in high salt fractions) [3]: Increased chromatin association; Chromatin association of HMGB1 (retention in high salt fractions) ([3]; listed as Ad5 protein VII): retention in the high salt chromatin fractions
